Data as given in patent US20180216136.

Tested on: ZFN 30035 (AAVS1) (synthetic)
Assay: cell_activity
Conditions: pair 30035:30054 in CD34+ cells, higher AAV6 donor dose, ZFN mRNA 40 ug/ml

CCCCACTGTGGGGTGGAGGGGACAGATA (double strand) [AAVS1 30035 target]
activity (% targeted integration): > 50
